From US20190127432A1 come the findings set out here.

The target of this experiment is FSH receptor on CHO-FSHR cells (Homo sapiens (Human)) (UniProt P23945). Put plainly: cell-based or functional assay.
Sequence of UniProt P23945 (P23945 18-695 limits assumed, form in doubt): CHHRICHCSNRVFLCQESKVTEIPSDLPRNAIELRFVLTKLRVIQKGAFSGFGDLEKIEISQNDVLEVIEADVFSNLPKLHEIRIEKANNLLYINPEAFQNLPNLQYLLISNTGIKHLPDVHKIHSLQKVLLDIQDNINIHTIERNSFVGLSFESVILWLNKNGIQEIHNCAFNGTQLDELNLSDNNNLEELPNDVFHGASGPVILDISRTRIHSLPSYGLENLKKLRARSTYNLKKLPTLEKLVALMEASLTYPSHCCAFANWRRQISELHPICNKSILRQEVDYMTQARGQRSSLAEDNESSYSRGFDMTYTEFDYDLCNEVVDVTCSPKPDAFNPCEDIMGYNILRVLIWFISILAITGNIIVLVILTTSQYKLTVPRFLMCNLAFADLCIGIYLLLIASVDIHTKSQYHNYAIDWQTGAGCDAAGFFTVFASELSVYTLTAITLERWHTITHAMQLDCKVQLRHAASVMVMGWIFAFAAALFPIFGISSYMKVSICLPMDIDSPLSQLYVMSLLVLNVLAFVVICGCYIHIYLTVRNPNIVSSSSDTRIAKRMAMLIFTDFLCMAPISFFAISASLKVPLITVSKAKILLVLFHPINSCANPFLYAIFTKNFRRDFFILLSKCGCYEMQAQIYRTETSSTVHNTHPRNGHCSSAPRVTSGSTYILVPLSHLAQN

With Elonva (ligand), the EC50 (ng/ml), cAMP stimulation in CHO-FSHR cells came out at 4.15 ng/mL; the Potency difference, cAMP stimulation in CHO-FSHR cells came out at 1.3 fold; the Vmax (%), cAMP stimulation in CHO-FSHR cells amounted to 99.3%; the Vmax (pmol/ml), cAMP stimulation in CHO-FSHR cells is 293 pmol/mL.
